Substrate in data set [1]: NC(=O)c1ccc[n+]([C@@H]2O[C@H](COP(=O)(O)OP(=O)(O)OC[C@H]3O[C@@H](n4cnc5c(N)ncnc54)[C@H](O)[C@@H]3O)[C@@H](O)[C@H]2O)c1
Kind of data set: purified protein. The data set is classed as biochemical, Eucalyptus grandis. Conditions: UDP-glucose saturating (1 mM), 20 mM Tris-HCl pH 8.0, 2 mM MgCl2, 30 °C, panel letters in text and Figure 3 caption are swapped, varied: cofactor.

Substrate in data set [2]: O=c1ccn([C@@H]2O[C@H](CO[P@@](=O)(O)O[P@@](=O)(O)O[C@H]3O[C@H](CO)[C@@H](O)[C@H](O)[C@H]3O)[C@@H](O)[C@H]2O)c(=O)[nH]1
Briefly: purified protein. The data set is classed as biochemical, Eucalyptus grandis. Conditions: NAD+ saturating (1 mM), 20 mM Tris-HCl pH 8.0, 2 mM MgCl2, 30 °C, panel letters in text and Figure 3 caption are swapped.

For orientation: Km means the substrate concentration at which the rate is half of its maximum.

B1: UDP-glucose dehydrogenase (UGDH), Poly-His-Tagged eucalyptus UDP-GDH, UDP-GlucDH (Eucalyptus grandis) (protein)
chain: MVKICCIGAGYVGGPTMAVIALKCPSVEVAVVDISVSRIQAWNSEQLPIYEPGLDAVVKQCRGKNLFFSTDVEKHVFEADIVFVSVNTPTKTRGLGAGKAADLTYWESAARMIADVSKSDKIVVEKSTVPVKTAEAIEKILTHNSKGIKFQILSNPEFLAEGTAIQDLFAPDRVLIGGRETPEGQKAIQTLKDVYAHWVPEDRILTTNLWSAELSKLAANAFLAQRISSVNAMSSLCEATGADVAQVSYAVGKDSRIGPKFLNASVGFGGSCFQKDILNLVYICECNGLPEVAEYWKQVIKINDYQKARFVNRVVSSMFNTVSNKKIAILGFAFKKDTGDTRETPAIDVCKGLLGDKARLSIYDPQVTEEQIQRDLTMNKFDWDHPVHLQPMSPTTVKQVSVVWDAYDAVKDAHGLCILTEWDEFKTLDYQRIYDNMQKPAYIFDGRNVVNVNKLREIGFIVYSIGKPLDPWLKDMPAVA
notes: full-length ORF (1443 bp, 480 residues, about 53 kDa) from cambial-region cDNA, N-terminal 6xHis tag (pDEST17) kept, E. coli BL21-AI; cDNA ends set by degenerate primers
B1: the Km in data set [1] amounted to 67.3 ± 17.9 µM; in data set [2], 60.7 ± 8.5 µM.
